According to patent publication US9494585B2, “Tools for the identification of Lingo-1, Lingo-2, Lingo-3 and Lingo-4 ligands, and uses thereof” (CENTRE NATIONAL DE LA RECHERCHE SCIENTIFIQUE-CNRS, priority 2010, dated 2016):
One block for each molecule: values may come before it.

Biological target: T1, Lingo-1-RLuc/Lingo-1-YFP dimer (Homo sapiens, UniProt Q96FE5)
T1 construct: expressed in transfected cells; host or cells: HEK-293 (transient calcium phosphate transfection)
Test: BRET measurement of Lingo-1 dimerization (Lingo-1-RLuc/Lingo-1-YFP) on live transfected HEK-293 cells
Assay type: cell-based
Settings: for BRET signal obtained between Lingo-1-RLuc and Lingo-1-YFP: HEK-293, HA-tagged construct co-expressed (800 ng), constant donor/acceptor ratio, 48 h after transfection, p<0.001 vs control
Description: For the BRET experiments, the HEK-293 cells cultured in 6-well plates, pre-treated with collagen, are transiently transfected using the calcium phosphate technique. Briefly, the plasmid DNA is mixed into a phosphate buffer (2×BBS, composed in particular of 50 mM BES (Cat No. B4554, Sigma), 280 mM NaCl, 1.5 mM Na2HPO4, adjusted to pH 6.95) with calcium chloride (2.5 M). After incubation for 15 minutes, the precipitate obtained is applied to the cells for 24 hours. The cells are then rinsed and incubated for a further 24 hours in a culture medium without antibiotics.
The cells are resuspended in a physiological buffer (HBSS for Hank's Buffered Salt Solution (Cat No. 14025100, Gibco, composed in particular of calcium chloride, magnesium chloride, magnesium sulfate, potassium chloride, monobasic potassium phosphate, sodium bicarbonate, sodium chloride, anhydrous dibasic sodium phosphate)) 48 hours after transfection and distributed into 96-well plates (100 000 to 200 000 cells per well) or into 384-well plates (20 000 to 40 000 cells per well). The fluorescence and luminescence readings are carried out at ambient temperature on a microplate reader, Mithras LB 940 (Berthold). The yield from transfection of the Lingo-1-eYFP, Lingo-2-eYFP, Lingo-3-eYFP or Lingo-4-eYFP construct is evaluated by reading the fluorescence of the eYFP emitted at 530-540 nm after excitation at 480 nm. The yield from transfection of the Lingo-1-RLuc, Lingo-2-RLuc, Lingo-3-RLuc or Lingo-4-RLuc construct is evaluated by reading the luminescence (1 second) obtained immediately after the addition of the coelenterazine substrate (5 μM).
The measurement of the BRET signal is carried out immediately after the addition of coelenterazine. […] The energy transfer which takes place in the fusion protein between the Rluc and the eYFP causes the appearance of a fluorescence signal with a maximum emission at 530-540 nm, characteristic of the spectral properties of eYFP. […]
The BRET reading was carried out at ambient temperature on a microplate reader, Mithras LB 940 (Berthold), using the new BRET filters. […]

- BRET signal obtained between Lingo-1-RLuc and Lingo-1-YFP: significantly decreased
B1: Lingo-1-HA: whole human Lingo-1 protein (amino acids 1-620) tagged with HA (protein)
chain: CPPRCECSAQDRAVLCHRKRFVAVPEGIPTETRLLDLGKNRIKTLNQDEFASFPHLEELELNENIVSAVEPGAFNNLFNLRTLGLRSNRLKLIPLGVFTGLSNLTKLDISENKIVILLDYMFQDLYNLKSLEVGDNDLVYISHRAFSGLNSLEQLTLEKCNLTSIPTEALSHLHGLIVLRLRHLNINAIRDYSFKRLYRLKVLEISHWPYLDTMTPNCLYGLNLTSLSITHCNLTAVPYLAVRHLVYLRFLNLSYNPISTIEGSMLHELLRLQEIQLVGGQLAVVEPYAFRGLNYLRVLNVSGNQLTTLEESVFHSVGNLETLILDSNPLACDCRLLWVFRRRWRLNFNRQQPTCATPEFVQGKEFKDFPDVLLPNYFTCRRARIRDRKAQQVFVDEGHTVQFVCRADGDPPPAILWLSPRKHLVSAKSNGRLTVFPDGTLEVRYAQVQDNGTYLCIAANAGGNDSMPAHLHVRSYSPDWPHQPNKTFAFISNQPGEGEANSTRATVPFPFDIKTLIIATTMGFISFLGVVLFCLVLLFLWSRGKGNTKHNIEIEYVPRKSDAGISSADAPRKFNMKMI
modifications: left off: small tags and cut ends
notes: whole human Lingo-1 protein (amino acids 1-620) tagged with HA

- BRET signal obtained between Lingo-1-RLuc and Lingo-1-YFP: significantly decreased
- BRET signal obtained between the Lingo-1-RLuc and Lingo-1-YFP proteins (HEK-293, Lingo-1-RLuc 250 ng/Lingo-1-YFP 1500 ng, new filters, HA-tagged protein at 0-2600 ng plasmid): significantly decreased
B2: DN-Lingo-1-HA: HA-tagged dominant negative of Lingo-1 (amino acids 1-577, without cytoplasmic portion), known Lingo-1 inhibitor (protein)
chain: CPPRCECSAQDRAVLCHRKRFVAVPEGIPTETRLLDLGKNRIKTLNQDEFASFPHLEELELNENIVSAVEPGAFNNLFNLRTLGLRSNRLKLIPLGVFTGLSNLTKLDISENKIVILLDYMFQDLYNLKSLEVGDNDLVYISHRAFSGLNSLEQLTLEKCNLTSIPTEALSHLHGLIVLRLRHLNINAIRDYSFKRLYRLKVLEISHWPYLDTMTPNCLYGLNLTSLSITHCNLTAVPYLAVRHLVYLRFLNLSYNPISTIEGSMLHELLRLQEIQLVGGQLAVVEPYAFRGLNYLRVLNVSGNQLTTLEESVFHSVGNLETLILDSNPLACDCRLLWVFRRRWRLNFNRQQPTCATPEFVQGKEFKDFPDVLLPNYFTCRRARIRDRKAQQVFVDEGHTVQFVCRADGDPPPAILWLSPRKHLVSAKSNGRLTVFPDGTLEVRYAQVQDNGTYLCIAANAGGNDSMPAHLHVRSYSPDWPHQPNKTFAFISNQPGEGEANSTRATVPFPFDIKTLIIATTMGFISFLGVVLFCLV
modifications: left off: small tags and cut ends
